According to the supplement of paper PMC12667976:
± gives the standard error.

B1: library; numbered along this chain (parent)
chain: MATDAALRRLLRLHRTEIAVAVDSAFPLLHALADHDVVPEDKFQETLHLKEKEGCPQAFHALLSWLLTQDSTAILDFWRVLFKDYNLERYGRLQPILDSFPKDVDLSQPRKGRKPPAVPKALVPPPRLPTKRKASEEARAAAPAALTPRGTASPGSQLKAKPPKKPESSAEQQRLPLGNGIQTMSASVQRAVAMSSGDVPGARGAVEGILIQQVFESGGSKKCIQVGGEFYTPSKFEDSGSGKNKARSSSGPKPLVRAKGAQGAAPGGGEARLGQQGSVPAPLALPSDPQLHQKNEDECAVCRDGGELICCDGCPRAFHLACLSPPLREIPSGTWRCSSCLQATVQEVQPRAEEPRPQEPPVETPLPPGLRSAGEEVRGPPGEPLAGMDTTLVYKHLPAPPSAAPLPGLDSSALHPLLCVGPEGQQNLAPGARCGVCGDGTDVLRCTHCAAAFHWRCHFPAGTSRPGTGLRCRSCSGDVTPAPVEGVLAPSPARLAPGPAKDDTASHEPALHRDDLESLLSEHTFDGILQWAIQSMARPAAPFPS

Variants of: B1
Assay: AIRE transcriptional activation functional score (insulin promoter-GFP; nonsense median 0, synonymous median 1) (normalised score); higher = higher AIRE activity (more reporter activation)
Settings: with insulin promoter-GFP reporter in HEK293
In short: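 Codon-optimized AIRE NNN-codon libraries (three regions) were integrated by Bxb1 recombinase into Flp-In T-REx HEK293 landing-pad cells carrying an insulin core promoter-GFP reporter. Integrants (mCherry+, BFP−) sorted at day 7 were expanded 7 days; top 10% GFP and unselected integrant populations were tile-sequenced. Functional score is select versus non-select variant enrichment, wild-type subtracted. Variants needed 10 counts per million in non-select; scores were rescaled to nonsense median 0 and synonymous median 1, then averaged over biological replicates.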

AIRE transcriptional activation functional score: each site, then its substitutions
T344: P 1.07 ± 0.27, W 1.1 ± 0.066, H 1.29 ± 0.11, N 0.983 ± 0.14, F 1.26 ± 0.16, R 1.08 ± 0.16, K 1.16 ± 0.08, Y 0.912 ± 0.1, D 0.882 ± 0.3, S 1.06 ± 0.15, Q 1.12 ± 0.21, V 0.896 ± 0.23, C 1.26 ± 0.26, L 0.939 ± 0.34, E 0.714 ± 0.21, G 1.16 ± 0.29, I 0.748 ± 0.15, A 0.851 ± 0.38, M 1.37 ± 0.031
Q342: N 0.925 ± 0.32, K 1.04 ± 0.08, F 1.08 ± 0.11, H 0.916 ± 0.16, V 0.754 ± 0.23, E 0.971 ± 0.22, P 0.83 ± 0.18, C 1.09 ± 0.16, S 1.13 ± 0.27, M 1.09 ± 0.031, L 0.929 ± 0.18, A 0.362 ± 0.25, W 1.73 ± 0.09, G 0.963 ± 0.34, T 0.546 ± 0.32, Y 1.06 ± 0.13, D 0.916 ± 0.08, I 1 ± 0.22, R 0.876 ± 0.31
L341: S 0.767 ± 0.29, K 0.983 ± 0.25, Q 1.08 ± 0.17, D 0.832 ± 0.14, W 1.32 ± 0.023, N 1.02 ± 0.053, C 1.24 ± 0.16, F 1.01 ± 0.089, I 1.21 ± 0.14, R 1.16 ± 0.16, H 0.986 ± 0.11, E 0.957 ± 0.14, T 1.03 ± 0.2, Y 0.945 ± 0.15, A 0.936 ± 0.45, V 0.917 ± 0.12, P 0.971 ± 0.16, G 1.11 ± 0.15, M 0.759 ± 0.046
Q346: D 1.46 ± 0.052, E 1.18 ± 0.093, M 1.29 ± 0.055, A 0.913 ± 0.36, F 0.819 ± 0.11, T 1.02 ± 0.21, L 1.2 ± 0.14, R 1.03 ± 0.2, C 0.884 ± 0.091, W 1.73 ± 0.09, P 1.12 ± 0.27, V 0.378 ± 0.25, Y 0.906 ± 0.29, G 1.13 ± 0.082, K 0.899 ± 0.15, H 1.3 ± 0.042, I 1.01 ± 0.16, N 0.737 ± 0.25, S 1.06 ± 0.16
C340: Y 0.989 ± 0.045
E347: Q 0.943 ± 0.2, N 0.719 ± 0.25, M 1.06 ± 0.099, V 0.892 ± 0.13, A 1 ± 0.18, K 1.11 ± 0.076, C 1.15 ± 0.025, H 1.32 ± 0.28, L 1.16 ± 0.24, D 1.21 ± 0.29, F 1.28 ± 0.059, T 1.26 ± 0.18, Y 1.43 ± 0.062, G 1.17 ± 0.13, W 1.24 ± 0.016, I 1.15 ± 0.12, R 1.23 ± 0.15, P 1.14 ± 0.2, S 1.12 ± 0.17
A343: V 1.03 ± 0.1, E 0.95 ± 0.23, C 0.944 ± 0.16, M 1.59 ± 0.066, L 1.38 ± 0.24, T 1.13 ± 0.28, K 0.609 ± 0.059, P 0.957 ± 0.096, I 1.36 ± 0.074, Y 1.09 ± 0.17, G 0.94 ± 0.21, F 1.38 ± 0.48, Q 0.485 ± 0.071, S 0.938 ± 0.23, R 0.816 ± 0.16, N 0.601 ± 0.21, W 1.93 ± 0.13, H 1.02 ± 0.16, D 1.18 ± 0.15
V348: H 1.33 ± 0.23, N 1.08 ± 0.14, Q 0.65 ± 0.4, L 1.09 ± 0.22, K 0.974 ± 0.081, M 0.509 ± 0.035, G 1.04 ± 0.15, P 0.929 ± 0.38, E 0.956 ± 0.17, C 0.781 ± 0.12, S 0.865 ± 0.25, R 1.19 ± 0.22, I 1.08 ± 0.076, F 1 ± 0.03, D 1.01 ± 0.076, A 1.1 ± 0.16, W 1.37 ± 0.074, T 1.04 ± 0.12, Y 0.929 ± 0.047
V345: I 0.913 ± 0.24, A 0.719 ± 0.2, R 1.14 ± 0.29, Q 0.581 ± 0.12, G 1.12 ± 0.068, S 0.912 ± 0.16, C 1.04 ± 0.15, P 1.06 ± 0.22, D 1.02 ± 0.18, H 0.756 ± 0.36, F 1.36 ± 0.035, M 1.28 ± 0.08, K 1.22 ± 0.21, N 0.989 ± 0.34, Y 1.02 ± 0.18, W 1.52 ± 0.023, E 0.982 ± 0.059, L 1.03 ± 0.23, T 1.24 ± 0.34
Q349: N 0.61 ± 0.22, P 0.847 ± 0.16, F 0.896 ± 0.13, M 0.852 ± 0.023, E 1.04 ± 0.12, D 0.985 ± 0.1, G 1.14 ± 0.19, R 0.95 ± 0.28, K 1.06 ± 0.14, A 0.994 ± 0.27, L 1.1 ± 0.26, C 1.1 ± 0.063, I 1.05 ± 0.23, H 0.951 ± 0.05
